Consider 94 variants from the supplement of paper PMC10567573.

B1: DULLARD (parent)
chain: LVVFTASMEIYGSAVADKLDNSRS
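Further: lentivirally expressed fusions sorted by FACS into six bins by GFP to DsRed ratio, PSI derived from sequencing read proportions per bin multiplied by bin number.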

The variants in the data set derive from B1. The experiment in a line: protein stability index of a GFP-peptide fusion (GPS, HEK-293T) (PSI 1-6); higher = more stable. The settings on record: c terminus: a fixed tail appended.
For the variant LVVFTASMEIPGSAVADKLDNSRS, the protein stability index was 2.01. Next, LVVFTASMEIDGSAVADKLDNSRS: 1.38. LVVFTASMEIQGSAVADKLDNSRS: the protein stability index came to 2.07.

For the variant LVVFTASMEIAGSAVADKLDNSRS, the protein stability index is 3.03. Take LVVFTASMEIKGSAVADKLDNSRS: the protein stability index was 1.51. Then LVVFTASMEIGGSAVADKLDNSRS, with 1.97; and LVVFTASMEIHGSAVADKLDNSRS, with 1.58; and LVVFTASMEISGSAVADKLDNSRS, with 2.13. Then LVVFTASMEIIGSAVADKLDNSRS, with 2.51; and LVVFTASMEIRGSAVADKLDNSRS, with 1.88. As to LVVFTASMEIEGSAVADKLDNSRS, the protein stability index is 2.44. Next, LVVFTASMEIMGSAVADKLDNSRS: 1.56; LVVFTASMEINGSAVADKLDNSRS: 3.21; LVVFTASMEICGSAVADKLDNSRS: 2.48. Then LVVFTASMEIYGSAKADKLDNSRS, with 2.26; and LVVFTASMEIYGSAEADKLDNSRS, with 2.32; and LVVFTASMEIYGSALADKLDNSRS, with 1.48. Turning to LVVFTASMEIYGSADADKLDNSRS, the protein stability index stood at 1.11. Then LVVFTASMEIYGSATADKLDNSRS, with 1.66. Then LVVFTASMEIYGSAIADKLDNSRS, with 3.03; and LVVFTASMEIYGSAAADKLDNSRS, with 2. Then LVVFTASMEIYGSARADKLDNSRS, with 3.02; and LVVFTASMEIYGSAHADKLDNSRS, with 1.82. Take LVVFTASMEIYGSANADKLDNSRS: the protein stability index came out at 1.87.

As for LVVFTASMEIYGSAYADKLDNSRS, the protein stability index was 1.87. Next, LVVFTASMEIYGSASADKLDNSRS: 2.48. Turning to LVVFTASMEIYGSAGADKLDNSRS, the protein stability index turned out to be 2.14.

For the variant LVVFTASMEIYGSACADKLDNSRS, the protein stability index is 1.95. Next, LVVFTASMEIYGRAVADKLDNSRS: 2.84. Then LVVFTASMEIYGCAVADKLDNSRS, with 2.05; and LVVFTASMEIYGTAVADKLDNSRS, with 2.42. Next, LVVFTASMEIYGIAVADKLDNSRS: 2.46.

As for LVVFTASMEIYGYAVADKLDNSRS, the protein stability index came to 2.58.

Turning to LVVFTASMEIYGGAVADKLDNSRS, the protein stability index is 1.68. Then LVVFTASMEIYGEAVADKLDNSRS, with 1.36; and LVVFTASMEIYGQAVADKLDNSRS, with 1.29; and LVVFTASMEIYGAAVADKLDNSRS, with 2.72. Regarding LVVFTASMEIYGPAVADKLDNSRS, the protein stability index amounted to 2.48. Then LVVFTASMEIYGDAVADKLDNSRS, with 2.37; and LVVFTASMEIYGSAVADKLDNTRS, with 1.89. Then LVVFTASMEIYGSAVADKLDNARS, with 2.39; and LVVFTASMEIYGSAVADKLDNGRS, with 2.5; and LVVFTASMEIYGSAVADKLDNDRS, with 2.71. Next, LVVFTASMEIYGSAVADKLDNYRS: 2.24; LVVFTASMEIYGSAVADKLDNERS: 4.27. In the case of LVVFTASMEIYGSAVADKLDNRRS, the protein stability index amounted to 3.98. Then LVVFTASMEIYGSAVADKLDNKRS, with 2.58.

For LVVFTASMEIYGSAVADKLDNIRS, the protein stability index stood at 2.37. Take LVVFTASMEIYGSAVADKLDNPRS: the protein stability index turned out to be 2.62.

As to LVVFTASMEIYGSAVADKLDNMRS, the protein stability index turned out to be 2.31.

For the variant LVVFTASMEIYGSAVADKLDNSRT, the protein stability index was determined as 2.71. As to LVVFTASMEIYGSAVADKLDNSRQ, the protein stability index came out at 2.15. Then LVVFTASMEIYGSAVADKLDNSRC, with 2.69; and LVVFTASMEIYGSAVADKLDNSRL, with 2.2; and LVVFTASMEIYGSAVADKLDNSRA, with 2.29.

LVVFTASMEIYGSAVADKLDNSRR: the protein stability index was found to be 1.88. Then LVVFTASMEIYGSAVADKLDNSRH, with 2.46; and LVVFTASMEIYGSAVADKLDNSRI, with 1.3; and LVVFTASMEIYGSAVADKLDNSRE, with 2.29.

On to LVVFTASMEIYGSAVADKLNNSRS, for which the protein stability index was determined as 1.6. Then LVVFTASMEIYGSAVADKLQNSRS, with 3.44; and LVVFTASMEIYGSAVADKLKNSRS, with 1.88; and LVVFTASMEIYGSAVADKLSNSRS, with 3.14. Then LVVFTASMEIYGSAVADKLVNSRS, with 2.63; and LVVFTASMEIYGSAVADKLLNSRS, with 2.95.

For the variant LVVFTASMEIYGSAVADKLTNSRS, the protein stability index was 2.02. Next, LVVFTASMEIYGSAVADKLENSRS: 1.97. Next, LVVFTASMEIYGSAVADKLANSRS: 3.32. Consider LVVFTASMEIYGSAVADKLCNSRS, for which the protein stability index was determined as 1.69. Then LVVFTASMEIYGSAVADKLYNSRS, with 2.51. Then LVVFTASMEIYGSAVADKLRNSRS, with 1.2; and LVVFTASMEIYGSAVADKLHNSRS, with 1.99. For the variant LVVFTASMEIYGSAVADKLPNSRS, the protein stability index was determined as 2.48. Next, LVVFTASMEIYGSAVADKQDNSRS: 2.45; LVVFTASMEIYGSAVADKDDNSRS: 1.73; LVVFTASMEIYGSAVADKPDNSRS: 2.23. Then LVVFTASMEIYGSAVADKMDNSRS, with 2.41; and LVVFTASMEIYGSAVADKSDNSRS, with 2.02. Regarding LVVFTASMEIYGSAVADKFDNSRS, the protein stability index amounted to 2.41.

As to LVVFTASMEIYGSAVADKIDNSRS, the protein stability index is 1.62.

On to LVVFTASMEIYGSAVADKKDNSRS, for which the protein stability index is 1.66. Regarding LVVFTASMEIYGSAVADKNDNSRS, the protein stability index stood at 1.23.

On to LVVFTASMEIYGSAVADKWDNSRS, for which the protein stability index is 2.27. Consider LVVFTASMEIYGSAVADKRDNSRS, for which the protein stability index worked out at 1.87.

Consider LVVFTASMEIYGSAVADKYDNSRS, for which the protein stability index was 3.37.

Turning to LVVFTASMEIYGSAVADKEDNSRS, the protein stability index was 2.17. Next, LVVFTASMEIYGSAVADKHDNSRS: 1.54; LVVFTASMWIYGSAVADKLDNSRS: 2.46; LVVFTASMNIYGSAVADKLDNSRS: 1.74. Next, LVVFTASMLIYGSAVADKLDNSRS: 3.73; LVVFTASMDIYGSAVADKLDNSRS: 2.27; LVVFTASMRIYGSAVADKLDNSRS: 2.71. Next, LVVFTASMVIYGSAVADKLDNSRS: 3. LVVFTASMFIYGSAVADKLDNSRS: the protein stability index was found to be 2.73.
